The text below walks through data of patent publication EP2546652A1.

For experiment [1], the target named is nervous necrosis virus (NNV) particles (nervous necrosis virus (from grouper)). The experiment can be described thus: immunomagnetic reduction (IMR), logistic fit of IMR (%) against NNV concentration.
Experiment [2] has the same target. The experiment can be described thus: immunomagnetic reduction (IMR), anti-NNV magnetic nanoparticles mixed with NNV solution; value at 5 TCID50/ml NNV.
Experiment [3] shares this target. The experiment in a line: immunomagnetic reduction (IMR), anti-NNV magnetic nanoparticles mixed with NNV solution; value at 10^7 TCID50/ml NNV.

In experiment [1], “nervous necrosis virus antibody (anti-nervous necrosis virus), covalently bound to the dextran shell of Fe3O4 magnetic nanoparticles” yielded a B (high-end value of the IMR signal, logistic fit) of 3.47% and a φo (fitting parameter of the logistic function of IMR signal against NNV concentration) of 26700 TCID50/ml. This substance gave an IMR signal in experiment [2] of 0.84%. In addition, the IMR signal in experiment [3] worked out at 3.04%.
